Assays:
[1] = target: full-length FapF (FapF 1–406) (Pseudomonas sp. UK4); test: native MS; 0.5 M ammonium acetate pH 7.6 with 0.5% C8E4; nano-electrospray, modified Q-Exactive
[2] = target: full-length FapF (FapF 1–406) (Pseudomonas sp. UK4)
[3] = target: FapF coiled-coil peptide D3–Q40 (Pseudomonas sp. UK4); test: SEC-MALS; Superdex 200 HR 10/30 column coupled to multiple laser light scattering; isolated coiled-coil peptide

stoichiometry N [1] | single-channel current recording in planar DPhPC bilayers: voltage-induced gating at an applied potential of −250 mV [2] | stoichiometry N [3] | Substance
3 | 3 steps | – | full-length FapF (FapF 1–406) (natural protein)
– | – | 3 | FapF coiled-coil peptide D3–Q40
